From PMC3104517 (Nature Communications, 2011)

B1: AnxA5 triple mutant R16E/K27E/K56E (natural protein, rat)
chain: ALRGTVTDFSGFDGEADAEVLRKAMEGLGTDEDSILNLLTARSNAQRQQIAEEFETLFGRDLVNDMKSELTGKFEKLIVALMKPSRLYDAYELKHALKGAGTDEKVLTEIIASRTPEELRAIKQAYEEEYGSNLEDDVVGDTSGYYQRMLVVLLQANRDPDTAIDDAQVELDAQALFQAGELKWGTDEEKFITILGTRSVSHLRRVFDKYMTISGFQIEETIDRETSGNLENLLLAVVKSIRSIPAYLAETLYYAMKGAGTDDHTLIRVIVSRSEIDLFNIRKEFRKNFATSLYSMIKGDTSGDYKKALLLLCGGEDD
B2: AnxA5 single mutant R23E (natural protein, rat)
chain: ALRGTVTDFSGFDGRADAEVLEKAMKGLGTDEDSILNLLTARSNAQRQQIAEEFKTLFGRDLVNDMKSELTGKFEKLIVALMKPSRLYDAYELKHALKGAGTDEKVLTEIIASRTPEELRAIKQAYEEEYGSNLEDDVVGDTSGYYQRMLVVLLQANRDPDTAIDDAQVELDAQALFQAGELKWGTDEEKFITILGTRSVSHLRRVFDKYMTISGFQIEETIDRETSGNLENLLLAVVKSIRSIPAYLAETLYYAMKGAGTDDHTLIRVIVSRSEIDLFNIRKEFRKNFATSLYSMIKGDTSGDYKKALLLLCGGEDD
B3: AnxA5 single mutant K191E (natural protein, rat)
chain: ALRGTVTDFSGFDGRADAEVLRKAMKGLGTDEDSILNLLTARSNAQRQQIAEEFKTLFGRDLVNDMKSELTGKFEKLIVALMKPSRLYDAYELKHALKGAGTDEKVLTEIIASRTPEELRAIKQAYEEEYGSNLEDDVVGDTSGYYQRMLVVLLQANRDPDTAIDDAQVELDAQALFQAGELKWGTDEEEFITILGTRSVSHLRRVFDKYMTISGFQIEETIDRETSGNLENLLLAVVKSIRSIPAYLAETLYYAMKGAGTDDHTLIRVIVSRSEIDLFNIRKEFRKNFATSLYSMIKGDTSGDYKKALLLLCGGEDD
B4: AnxA5 single mutant K27E (natural protein, rat)
chain: ALRGTVTDFSGFDGRADAEVLRKAMEGLGTDEDSILNLLTARSNAQRQQIAEEFKTLFGRDLVNDMKSELTGKFEKLIVALMKPSRLYDAYELKHALKGAGTDEKVLTEIIASRTPEELRAIKQAYEEEYGSNLEDDVVGDTSGYYQRMLVVLLQANRDPDTAIDDAQVELDAQALFQAGELKWGTDEEKFITILGTRSVSHLRRVFDKYMTISGFQIEETIDRETSGNLENLLLAVVKSIRSIPAYLAETLYYAMKGAGTDDHTLIRVIVSRSEIDLFNIRKEFRKNFATSLYSMIKGDTSGDYKKALLLLCGGEDD
B5: AnxA5 single mutant R16E (natural protein, rat)
chain: ALRGTVTDFSGFDGEADAEVLRKAMKGLGTDEDSILNLLTARSNAQRQQIAEEFKTLFGRDLVNDMKSELTGKFEKLIVALMKPSRLYDAYELKHALKGAGTDEKVLTEIIASRTPEELRAIKQAYEEEYGSNLEDDVVGDTSGYYQRMLVVLLQANRDPDTAIDDAQVELDAQALFQAGELKWGTDEEKFITILGTRSVSHLRRVFDKYMTISGFQIEETIDRETSGNLENLLLAVVKSIRSIPAYLAETLYYAMKGAGTDDHTLIRVIVSRSEIDLFNIRKEFRKNFATSLYSMIKGDTSGDYKKALLLLCGGEDD
B6: AnxA5 triple mutant R16E/K27E/K191E (natural protein, rat)
chain: ALRGTVTDFSGFDGEADAEVLRKAMEGLGTDEDSILNLLTARSNAQRQQIAEEFKTLFGRDLVNDMKSELTGKFEKLIVALMKPSRLYDAYELKHALKGAGTDEKVLTEIIASRTPEELRAIKQAYEEEYGSNLEDDVVGDTSGYYQRMLVVLLQANRDPDTAIDDAQVELDAQALFQAGELKWGTDEEEFITILGTRSVSHLRRVFDKYMTISGFQIEETIDRETSGNLENLLLAVVKSIRSIPAYLAETLYYAMKGAGTDDHTLIRVIVSRSEIDLFNIRKEFRKNFATSLYSMIKGDTSGDYKKALLLLCGGEDD
B7: AnxA5 triple mutant R23E/K27E/K191E (natural protein, rat)
chain: ALRGTVTDFSGFDGRADAEVLEKAMEGLGTDEDSILNLLTARSNAQRQQIAEEFKTLFGRDLVNDMKSELTGKFEKLIVALMKPSRLYDAYELKHALKGAGTDEKVLTEIIASRTPEELRAIKQAYEEEYGSNLEDDVVGDTSGYYQRMLVVLLQANRDPDTAIDDAQVELDAQALFQAGELKWGTDEEEFITILGTRSVSHLRRVFDKYMTISGFQIEETIDRETSGNLENLLLAVVKSIRSIPAYLAETLYYAMKGAGTDDHTLIRVIVSRSEIDLFNIRKEFRKNFATSLYSMIKGDTSGDYKKALLLLCGGEDD
B8: AnxA5 single mutant K56E (natural protein, rat)
chain: ALRGTVTDFSGFDGRADAEVLRKAMKGLGTDEDSILNLLTARSNAQRQQIAEEFETLFGRDLVNDMKSELTGKFEKLIVALMKPSRLYDAYELKHALKGAGTDEKVLTEIIASRTPEELRAIKQAYEEEYGSNLEDDVVGDTSGYYQRMLVVLLQANRDPDTAIDDAQVELDAQALFQAGELKWGTDEEKFITILGTRSVSHLRRVFDKYMTISGFQIEETIDRETSGNLENLLLAVVKSIRSIPAYLAETLYYAMKGAGTDDHTLIRVIVSRSEIDLFNIRKEFRKNFATSLYSMIKGDTSGDYKKALLLLCGGEDD
B9: AnxA5 double mutant K27E/K191E (natural protein, rat)
chain: ALRGTVTDFSGFDGRADAEVLRKAMEGLGTDEDSILNLLTARSNAQRQQIAEEFKTLFGRDLVNDMKSELTGKFEKLIVALMKPSRLYDAYELKHALKGAGTDEKVLTEIIASRTPEELRAIKQAYEEEYGSNLEDDVVGDTSGYYQRMLVVLLQANRDPDTAIDDAQVELDAQALFQAGELKWGTDEEEFITILGTRSVSHLRRVFDKYMTISGFQIEETIDRETSGNLENLLLAVVKSIRSIPAYLAETLYYAMKGAGTDDHTLIRVIVSRSEIDLFNIRKEFRKNFATSLYSMIKGDTSGDYKKALLLLCGGEDD

Biological target: the molecule itself
Assay: 2D crystallisation on lipid monolayers, negative-stain TEM

Binding result, binds:
B1
B2
B3
B4
B5
B6
B7
B8
B9
